T1: human GITR (amino acids M1-V241, NCBI Accession #NP_004186.1) expressed on cells (human, UniProt Q9Y5U5 26-241)
T1 construct: also called hGITR; hGITR/HEK293-D9
T1 sequence: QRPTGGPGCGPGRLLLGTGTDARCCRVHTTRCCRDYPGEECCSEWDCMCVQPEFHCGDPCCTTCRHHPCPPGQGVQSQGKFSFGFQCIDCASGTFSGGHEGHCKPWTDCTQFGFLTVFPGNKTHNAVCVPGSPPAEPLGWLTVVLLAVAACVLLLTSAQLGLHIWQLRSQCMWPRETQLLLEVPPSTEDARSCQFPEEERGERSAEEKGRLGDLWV

T2: mfGITR.mmh (Macaca fasicularis)
T2 construct: soluble monomeric construct; also called Macaca fasicularis (mf) GITR.mmh; cynomolgus GITR protein
T2 chain: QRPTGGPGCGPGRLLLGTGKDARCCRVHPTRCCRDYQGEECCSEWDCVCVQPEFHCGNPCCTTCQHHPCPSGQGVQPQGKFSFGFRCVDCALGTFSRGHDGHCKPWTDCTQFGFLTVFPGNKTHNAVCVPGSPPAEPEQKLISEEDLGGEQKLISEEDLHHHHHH

T3: hGITR.mFc (human)
T3 construct: soluble dimeric construct with mouse Fc; also called dimeric human GITR
T3 chain: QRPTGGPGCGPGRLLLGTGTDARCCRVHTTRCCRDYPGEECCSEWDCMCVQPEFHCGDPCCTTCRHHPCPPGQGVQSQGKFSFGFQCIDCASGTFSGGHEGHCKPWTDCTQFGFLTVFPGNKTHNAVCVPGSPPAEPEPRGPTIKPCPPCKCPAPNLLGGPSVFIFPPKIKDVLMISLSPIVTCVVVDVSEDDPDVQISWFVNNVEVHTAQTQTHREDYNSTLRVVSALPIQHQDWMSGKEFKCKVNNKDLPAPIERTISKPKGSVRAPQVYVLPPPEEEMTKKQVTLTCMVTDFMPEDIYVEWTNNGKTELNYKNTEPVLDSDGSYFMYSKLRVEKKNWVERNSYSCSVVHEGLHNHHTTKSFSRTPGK

T4: hGITR.mmh (human)
T4 construct: soluble monomeric construct; also called human (h) GITR.mmh; monomeric human GITR
T4 chain: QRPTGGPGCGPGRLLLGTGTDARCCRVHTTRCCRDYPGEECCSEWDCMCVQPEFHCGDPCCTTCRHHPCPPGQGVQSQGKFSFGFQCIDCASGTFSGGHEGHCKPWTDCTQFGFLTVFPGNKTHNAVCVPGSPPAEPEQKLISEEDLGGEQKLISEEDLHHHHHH

B1: H4H14508P (antibody, human IgG4, V domains shown)
VH: QVQLVESGGGVVQPGRSLRLSCAASGLTVSSYVMHWVRQAPGKGLEWVAIIWYDGSNKYYGDSVKGRFTISRDNSKKTLYLQMNSLRAEDTAVYYCARGRPLSSSSSDYYGLDVWGQGTTVTVSS
VL: AIQMTQSPSSLSASVGDRVTIICRASQGIRNDLGWYQQKPGKAPNLLIYAASSLQSGVPSRFSGSGSGTDFTLTISSLQPEDFATYYCLQDYNYPWTFGQGTKVEIK
notes: human IgG4 (H4H)
B2: H4H14521P (antibody, human IgG4, V domains shown)
VH: EVQLVESGGGLVQPGGSLRLSCAASGFTFRVYEMNWVRQAPGKGLEWISYIGSSGFTIYYADSVKGRFTISRDNAKNSLFLQLNSLRAEDTAVYYCARGWNDGVPNYLGMDVWGQGTTVTVSS
VL: DIQMTQSPSSLSASVGDRVTITCQASQDINKYLNWYQQKPGKAPKLLIYDASNLETGVPSRFSGSGSGTDFTFTISSLQPEDIARYHCQQYDKIPLTFGGGTKVEIK
notes: human IgG4 (H4H)

Assays:
[1] = biological target: T1, human GITR (amino acids M1-V241, NCBI …); test: ECL cell binding, hGITR/HEK293-D9
Experimental: Nonspecific binding sites were blocked with 2% BSA (w/v)+PBS for 1 h at room temperature (RT). Next, serial dilutions of anti-GITR antibodies, ranging from 1.7 pM to 100 nM, were added to cells for 1 h at RT. Plates were then washed to remove unbound antibodies (AquaMax2000 plate washer, MSD Analytical Technologies) and plate-bound antibodies were detected with a SULFO-TAG™ conjugated anti-human kappa light chain IgG antibody (Jackson Immunoresearch) for 1 h at RT.
Following washes, luminescent signals were recorded with a SECTOR Imager 6000 (MSD) instrument. Direct binding signals (relative light units, RLU) were analyzed as a function of the antibody concentration and data were fitted with a sigmoidal (four-parameter logistic) dose-response model using GraphPad Prism™ software. […] The signal detected with 100 nM antibody binding to the hGITR expressing cells versus parental cells was recorded as an indication of intensity and specificity of GITR binding.

[2] = biological target: T1, human GITR (amino acids M1-V241, NCBI …); test: cell-based or functional assay
[3] = biological target: T1, human GITR (amino acids M1-V241, NCBI …); test: cell-based or functional assay; remark: listed apart in the source
mfGITR.mmh = biological target: T2, mfGITR.mmh; test: SPR 37C, mAb capture
Experimental: (§1) (Table 3). […] GITR proteins were injected over the sensor surface at a flow rate of 30 μL/minute. All Biacore binding studies were performed in a buffer composed of 0.01M HEPES pH 7.4, 0.15M NaCl, 3 mM EDTA, 0.05% v/v Surfactant P20 (HBS-ET running buffer). Antibody-reagent association was monitored for 4 minutes while dissociation in HBS-ET running buffer (10 mM HEPES, 150 mM NaCl, 3 mM EDTA, 0.05% (v/v) Surfactant P20, pH 7.4) was monitored for 10 minutes. Kinetic association (kₐ) and dissociation (kd) rate constants were determined by fitting the real-time sensorgrams to a 1:1 binding model using Scrubber 2.0c curve fitting software. Binding dissociation equilibrium constants (KD) and dissociative half-lives (t ½) were calculated from the kinetic rate constants as: KD [M]=kd/kₐ; and t_{1/2}(min)=(ln 2/(60*kd). Results are summarized in Table 3.

hGITR.mFc = biological target: T3, hGITR.mFc; test: SPR 37C, mAb capture
Experimental: as §1

hGITR.mmh = biological target: T4, hGITR.mmh; test: SPR 37C, mAb capture
Experimental: as §1

[4] = biological target: T1, human GITR (amino acids M1-V241, NCBI …); test: cell-based or functional assay; remark: listed apart in the source
[5] = biological target: T1, human GITR (amino acids M1-V241, NCBI …); test: cell-based or functional assay; remark: listed apart in the source

Binder	Average Signal (RLU) at 100 nM [1] [RLU]	EC50 [1] [nM]	fold activation, T-cell proliferation, 33 nM, FcgR anchored, donor 1 [2] [fold]	fold activation, T-cell proliferation, 33 nM, FcgR anchored, donor 2 [2] [fold]	fold activation, T-cell proliferation, 33 nM, FcgR anchored, donor 3 [2] [fold]	fold activation, T-cell proliferation, 33 nM, FcgR anchored, donor 4 [2] [fold]	fold activation, T-cell proliferation, 33 nM, FcgR anchored, donor 5 [2] [fold]	fold activation, T-cell proliferation, 33 nM, FcgR anchored, mean [2] [fold]	fold activation, T-cell proliferation, 22 nM, non-anchored, donor 1 [3] [fold]	fold activation, T-cell proliferation, 22 nM, non-anchored, donor 2 [3] [fold]	fold activation, T-cell proliferation, 22 nM, non-anchored, donor 3 [3] [fold]	fold activation, T-cell proliferation, 22 nM, non-anchored, donor 4 [3] [fold]	fold activation, T-cell proliferation, 22 nM, non-anchored, mean [3] [fold]	Kd (mfGITR.mmh) [nM]	koff (mfGITR.mmh) [s⁻¹]	kon (mfGITR.mmh) [M⁻¹ s⁻¹]	t½ (mfGITR.mmh) [min]	Kd (hGITR.mFc) [nM]	koff (hGITR.mFc) [s⁻¹]	kon (hGITR.mFc) [M⁻¹ s⁻¹]	further results
B1	6870	0.45	1	0.7	1.1	1.8	1.3	1.2	0.7	0.9	0.9	1.4	1	39.3	0.00507	129000	2.3	0.597	0.000719	1.21e+06	t½ (hGITR.mFc): 16.1 min; Kd (hGITR.mmh): 36.6 nM; koff (hGITR.mmh): 0.00935 s⁻¹; kon (hGITR.mmh): 255000 M⁻¹ s⁻¹; t½ (hGITR.mmh): 1.2 min; fold activation, T-cell proliferation, plate-bound Ab 10.6 nM, donor 1 [4]: 10 fold; fold activation, T-cell proliferation, plate-bound Ab 10.6 nM, donor 2 [4]: 4 fold; fold activation, T-cell proliferation, plate-bound Ab 10.6 nM, donor 3 [4]: 4 fold; fold activation, T-cell proliferation, plate-bound Ab 10.6 nM, donor 4 [4]: 7 fold; fold activation, T-cell proliferation, plate-bound Ab 10.6 nM, donor 5 [4]: 4 fold; fold activation, T-cell proliferation, plate-bound Ab 10.6 nM, donor 6 [4]: 11 fold; fold activation, T-cell proliferation, plate-bound Ab 10.6 nM, donor 7 [4]: 3 fold; fold activation, T-cell proliferation, plate-bound Ab 10.6 nM, donor 8 [4]: 2 fold; fold activation, T-cell proliferation, plate-bound Ab 10.6 nM, mean [4]: 5 fold; % Activation, NF-kB-Luc, non-anchored [5]: 30%; % Blocking, NF-kB-Luc, non-anchored [5]: 40%; EC50, hGITR activation, NF-kB-Luc, non-anchored [5]: 1.2 nM; IC50, blocking of hGITRL stimulation, NF-kB-Luc, non-anchored [5]: 0.9 nM
B2	10100	0.43	1.5	1.1	1.1	1.7	0.9	1.2	0.5	1.2	0.8	1	0.9	20.1	0.00334	166000	3.5	0.389	0.000479	1.23e+06	t½ (hGITR.mFc): 24.1 min; Kd (hGITR.mmh): 22.7 nM; koff (hGITR.mmh): 0.00784 s⁻¹; kon (hGITR.mmh): 345000 M⁻¹ s⁻¹; t½ (hGITR.mmh): 1.5 min; fold activation, T-cell proliferation, plate-bound Ab 10.6 nM, donor 1 [4]: 1 fold; fold activation, T-cell proliferation, plate-bound Ab 10.6 nM, donor 2 [4]: 4 fold; fold activation, T-cell proliferation, plate-bound Ab 10.6 nM, donor 3 [4]: 4 fold; fold activation, T-cell proliferation, plate-bound Ab 10.6 nM, donor 4 [4]: 5 fold; fold activation, T-cell proliferation, plate-bound Ab 10.6 nM, donor 5 [4]: 4 fold; fold activation, T-cell proliferation, plate-bound Ab 10.6 nM, donor 6 [4]: 12 fold; fold activation, T-cell proliferation, plate-bound Ab 10.6 nM, donor 7 [4]: 3 fold; fold activation, T-cell proliferation, plate-bound Ab 10.6 nM, donor 8 [4]: 2 fold; fold activation, T-cell proliferation, plate-bound Ab 10.6 nM, mean [4]: 4 fold; % Activation, NF-kB-Luc, non-anchored [5]: 50%; % Blocking, NF-kB-Luc, non-anchored [5]: 60%; EC50, hGITR activation, NF-kB-Luc, non-anchored [5]: 0.4 nM; IC50, blocking of hGITRL stimulation, NF-kB-Luc, non-anchored [5]: 3.8 nM

— US20170355774A1 (Regeneron, published 2017)
